The values below come from paper PMC5758891.

This series concerns the target T1, Lhr-(1-856) (UniProt A0QT91 1-856).
T1 sequence: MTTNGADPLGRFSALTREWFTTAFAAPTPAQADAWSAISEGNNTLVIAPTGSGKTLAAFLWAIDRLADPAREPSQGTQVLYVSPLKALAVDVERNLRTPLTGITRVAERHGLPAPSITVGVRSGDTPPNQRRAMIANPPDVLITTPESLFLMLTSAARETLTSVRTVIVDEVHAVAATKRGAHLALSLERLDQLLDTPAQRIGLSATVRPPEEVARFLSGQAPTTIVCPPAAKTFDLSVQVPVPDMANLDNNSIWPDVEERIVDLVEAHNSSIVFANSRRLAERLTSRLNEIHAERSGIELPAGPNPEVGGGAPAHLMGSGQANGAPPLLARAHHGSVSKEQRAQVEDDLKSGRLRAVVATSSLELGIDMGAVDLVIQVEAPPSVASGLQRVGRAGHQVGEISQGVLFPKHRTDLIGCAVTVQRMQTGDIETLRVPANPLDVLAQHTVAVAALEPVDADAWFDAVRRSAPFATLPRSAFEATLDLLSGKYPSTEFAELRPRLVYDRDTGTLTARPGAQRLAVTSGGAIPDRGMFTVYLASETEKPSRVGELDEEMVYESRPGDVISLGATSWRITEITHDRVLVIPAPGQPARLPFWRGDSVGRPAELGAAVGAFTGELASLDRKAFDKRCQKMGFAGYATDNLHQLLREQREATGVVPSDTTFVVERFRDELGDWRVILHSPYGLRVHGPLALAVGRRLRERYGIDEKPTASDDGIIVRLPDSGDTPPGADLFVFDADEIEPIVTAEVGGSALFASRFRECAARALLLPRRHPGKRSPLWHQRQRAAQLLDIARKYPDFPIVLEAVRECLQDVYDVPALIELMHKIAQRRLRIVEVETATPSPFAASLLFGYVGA
The experiment in a line: X-ray crystallography.

As to GACCTGCTGCGGATTG (ssDNA) [16-mer ssDNA], the binding result was “binds”.
